Ends that are not written are not given here.
Tests used:
Immunoglobulin G (IgG) = experiment: Purification from Effluent II+III, IgG mass balance; type: binding, human; conditions: 1 ml Eff. II+III, 4° C.
Method in brief: (§1)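 Run at 4° C: Effluent II+III (1 ml, 20% ethanol) loaded with a 10 min residence. Elution at 865 μl/min, in sequence 1M NaCl, 3M NaCl, 2% acetic acid; A1PI, IgA, IgG and haptoglobin accounted for in each fraction.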

A1PI [1] = biological target: T1, A1PI (Homo sapiens, UniProt P01009); experiment: Purification of A1PI from Effluent II+III on peptide column, A1PI mass balance; type: binding; conditions: A1PI, 1 ml Eff. II+III, 4° C.; for Mass Protein per Eluate Fraction, 1M NaCl / Mass Protein per Eluate Fraction, 2% Acetic Acid / Mass Protein per Eluate Fraction, Flow: * as in Tables 4, 5 (below detection limit)
T1 construct: Human plasma is currently the only approved source of therapeutic AlPI
T1 sequence (P01009 25-418): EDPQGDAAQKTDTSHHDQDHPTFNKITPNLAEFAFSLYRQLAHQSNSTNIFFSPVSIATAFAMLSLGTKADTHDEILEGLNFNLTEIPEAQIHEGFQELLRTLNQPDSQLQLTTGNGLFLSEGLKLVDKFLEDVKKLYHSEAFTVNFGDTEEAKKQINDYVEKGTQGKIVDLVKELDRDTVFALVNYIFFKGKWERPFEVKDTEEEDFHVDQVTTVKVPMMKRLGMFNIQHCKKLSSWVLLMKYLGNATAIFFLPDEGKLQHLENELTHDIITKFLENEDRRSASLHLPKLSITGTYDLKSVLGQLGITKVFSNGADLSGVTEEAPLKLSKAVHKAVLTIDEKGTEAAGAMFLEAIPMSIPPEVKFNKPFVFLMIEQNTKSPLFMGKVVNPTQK
Method in brief: as §1

A1PI [2] = biological target: T1, A1PI; experiment: A1PI purification from 5 mg hSA + 1 mg A1PI on peptide column, A1PI mass balance; type: binding; conditions: A1PI, 5 mg hSA + 1 mg A1PI; for Percent Eluted by Fraction, 1M NaCl / Percent Eluted by Fraction, 2% Ac. Acid / Percent Eluted by Fraction, 3M NaCl / Percent Eluted by Fraction, Flow: relative to total eluted
Method in brief: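 Peptides on A-Totda-Toyopearl resin (0.1 mmole/g) in 0.4×5 cm columns; 5 mg hSA + 1 mg A1PI loaded at 4 °C or 20 °C with 10 min residence (17 μl/min). Steps of 1M and 3M NaCl, then 2% acetic acid; fractions quantified by immunonephelometry for mass balance.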

[3] = biological target: T2, apolipoprotein alpha-1 (Apo A-1) (Homo sapiens, UniProt P02647); experiment: Purification from Effluent II+III, Apo A-1 mass balance; type: binding; conditions: 1 ml Eff. II+III, 4° C.; for Mass Protein per Eluate Fraction, 2% Acetic Acid: * as in Tables 4, 5 (below detection limit)
T2 construct: Eff; II+III is a process intermediate in the Cohn plasma fractionation process; tissue Bayer Corporation (Clayton, N.C.); host or cells: plasma fraction: Cohn Effluent II+III
T2 sequence (P02647 19-267): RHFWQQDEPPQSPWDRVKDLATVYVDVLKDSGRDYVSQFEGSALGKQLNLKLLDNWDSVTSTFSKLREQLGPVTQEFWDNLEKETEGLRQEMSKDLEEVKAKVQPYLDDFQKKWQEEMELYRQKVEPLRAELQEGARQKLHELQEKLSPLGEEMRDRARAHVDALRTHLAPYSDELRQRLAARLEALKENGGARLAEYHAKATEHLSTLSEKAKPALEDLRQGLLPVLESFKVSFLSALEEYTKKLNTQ
Method in brief: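 Mass balance per protein was determined over the load and each step eluate (1M NaCl, 3M NaCl, 2% acetic acid) of peptide columns challenged with 1 ml Effluent II+III. The feed contained 20% ethanol and 20-25 mg/ml hSA, the flow was 865 μl/min after a 10 min residence, and the temperature was 4° C.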

A1PI [4] = biological target: T1, A1PI; experiment: A1PI binding on peptide-resin column, injection of 1 mg A1PI in equilibration buffer; conditions: 1 mg A1PI in equilibration buffer; for Percent A1PI Eluted by Fraction Based on Absorbance at 280 nm, 1M NaCl / Percent A1PI Eluted by Fraction Based on Absorbance at 280 nm, 2% Acetic Acid / Percent A1PI Eluted by Fraction Based on Absorbance at 280 nm, Flowthrough: 4° C.; for Percent A1PI Eluted by Fraction, 1M NaCl / Percent A1PI Eluted by Fraction, 2% Acetic Acid / Percent A1PI Eluted by Fraction, Flowthrough: 20° C.
Method in brief: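 Peptides synthesized on A-Totda-Toyopearl chelate resin (0.1 mmole/g) packed in 0.4×5 cm columns; 1 mg A1PI injected in equilibration buffer at 4 °C or 20 °C, 865 or 523 μl/min. Flowthrough, 1M/3M NaCl washes and 2% acetic acid eluate quantified by A280 or immunonephelometry as percent of total eluted.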

Immunoglobulin A (IgA) = experiment: Purification from Effluent II+III, IgA mass balance; type: binding, human; conditions: 1 ml Eff. II+III, 4° C.; for Mass Protein per Eluate Fraction, 1M NaCl / Mass Protein per Eluate Fraction, 2% Acetic Acid / Mass Protein per Eluate Fraction, Flow: * as in Tables 4, 5 (below detection limit)
Method in brief: as §1

A1PI [5] = biological target: T1, A1PI; experiment: Capture and elution of active A1PI with 2M urea buffer (elastase inhibition activity assay and immunonephelometry); type: binding; conditions: 4° C.; for Mass A1PI in Urea Eluate (mg), Activity / Mass A1PI in Urea Eluate (mg), Nephelometry: 1 mg A1PI, eluted with 2M urea, pH 6; for Mass A1PI in Urea Eluate (mg), Activity: elastase inhibition activity assay; for Mass A1PI in Urea Eluate (mg), Nephelometry: immunonephelometry; for Specific Activity: mass of A1PI by activity assay relative to immunonephelometry, urea eluate
A1PI [6] = biological target: T1, A1PI; experiment: A1PI yield from dialyzed (aqueous) Effluent II+III; type: binding; conditions: 4° C.
Method: Effluent II+III was dialyzed against equilibration buffer at 4° C. to remove the ethanol using a 15,000 molecular weight cut-off membrane. Nephelometry of the Eff. […] A portion of the identified sequences were assayed under the same conditions applied for neat Eff. II+III at 4° C. […] II+III compared to the neat, ethanol-containing feed. The binding strength differed for the aqueous feed as more AlPI eluted in 1M NaCl for the aqueous feed. The AlPI eluted in the 1M NaCl fractions was not as enriched as that eluted in the acid eluates.

[7] = * as in Tables 4, 5 (below detection limit)
[8] = 20° C., * Below detection limit
[9] = 1 ml dialyzed Eff. II+III (ethanol removed)
[10] = A1PI, 1 ml dialyzed Eff. II+III

RFIYYT
Percent Eluted by Fraction, 1M NaCl (Immunoglobulin G (IgG)): 7%
Percent Eluted by Fraction, 2% Acetic Acid (Immunoglobulin G (IgG)): 7%
Percent Eluted by Fraction, 3M NaCl (Immunoglobulin G (IgG)): 0%
Percent Eluted by Fraction, Flow (Immunoglobulin G (IgG)): 86%
Mass Protein per Eluate Fraction, 1M NaCl (Immunoglobulin G (IgG); [7]): 0.02 mg
Mass Protein per Eluate Fraction, 2% Acetic Acid (Immunoglobulin G (IgG); [7]): 0.02 mg
Mass Protein per Eluate Fraction, Flow (Immunoglobulin G (IgG); [7]): 0.23 mg
Percent Eluted by Fraction, 1M NaCl (A1PI [1]): 5%
Percent Eluted by Fraction, 2% Acetic Acid (A1PI [1]): 80%
Percent Eluted by Fraction, 3M NaCl (A1PI [1]): 0%
Percent Eluted by Fraction, Flow (A1PI [1]): 15%
Mass Protein per Eluate Fraction, 1M NaCl (A1PI [1]): 0.05 mg
Mass Protein per Eluate Fraction, 2% Acetic Acid (A1PI [1]): 0.81 mg
Mass Protein per Eluate Fraction, Flow (A1PI [1]): 0.15 mg
Mass Protein per Eluate Fraction, 1M NaCl (A1PI [2]; 4° C., * Below detection limit): 0.27 mg
Mass Protein per Eluate Fraction, 2% Ac. Acid (A1PI [2]; 4° C., * Below detection limit): 0.64 mg
Mass Protein per Eluate Fraction, 3M NaCl (A1PI [2]; 4° C., * Below detection limit): 0.04 mg
Mass Protein per Eluate Fraction, Flow (A1PI [2]; 4° C., * Below detection limit): 0.03 mg
Percent Eluted by Fraction, 1M NaCl (A1PI [2]; 4° C.): 27%
Percent Eluted by Fraction, 2% Ac. Acid (A1PI [2]; 4° C.): 66%
Percent Eluted by Fraction, 3M NaCl (A1PI [2]; 4° C.): 4%
Percent Eluted by Fraction, Flow (A1PI [2]; 4° C.): 3%
Mass Protein per Eluate Fraction, 1M NaCl (A1PI [2]; [8]): 0.11 mg
Mass Protein per Eluate Fraction, 2% Ac. Acid (A1PI [2]; [8]): 0.44 mg
Mass Protein per Eluate Fraction, Flow (A1PI [2]; [8]): 0.29 mg
Percent Eluted by Fraction, 1M NaCl (A1PI [2]; 20° C.): 12%
Percent Eluted by Fraction, 2% Ac. Acid (A1PI [2]; 20° C.): 53%
Percent Eluted by Fraction, 3M NaCl (A1PI [2]; 20° C.): 0%
Percent Eluted by Fraction, Flow (A1PI [2]; 20° C.): 35%
Percent Eluted by Fraction, 1M NaCl [3]: 0%
Percent Eluted by Fraction, 2% Acetic Acid [3]: 100%
Percent Eluted by Fraction, 3M NaCl [3]: 0%
Percent Eluted by Fraction, Flow [3]: 0%
Mass Protein per Eluate Fraction, 2% Acetic Acid [3]: 0.37 mg
Percent A1PI Eluted by Fraction Based on Absorbance at 280 nm, 1M NaCl (A1PI [4]): 57%
Percent A1PI Eluted by Fraction Based on Absorbance at 280 nm, 2% Acetic Acid (A1PI [4]): 43%
Percent A1PI Eluted by Fraction Based on Absorbance at 280 nm, Flowthrough (A1PI [4]): 0%
Percent A1PI Eluted by Fraction, 1M NaCl (A1PI [4]): 64%
Percent A1PI Eluted by Fraction, 2% Acetic Acid (A1PI [4]): 36%
Percent A1PI Eluted by Fraction, Flowthrough (A1PI [4]): 0%
Percent Eluted by Fraction, 1M NaCl (Immunoglobulin A (IgA)): 31%
Percent Eluted by Fraction, 2% Acetic Acid (Immunoglobulin A (IgA)): 38%
Percent Eluted by Fraction, 3M NaCl (Immunoglobulin A (IgA)): 0%
Percent Eluted by Fraction, Flow (Immunoglobulin A (IgA)): 31%
Mass Protein per Eluate Fraction, 1M NaCl (Immunoglobulin A (IgA)): 0.10 mg
Mass Protein per Eluate Fraction, 2% Acetic Acid (Immunoglobulin A (IgA)): 0.12 mg
Mass Protein per Eluate Fraction, Flow (Immunoglobulin A (IgA)): 0.10 mg
Mass A1PI in Urea Eluate (mg), Activity (A1PI [5]): 0.67 mg
Mass A1PI in Urea Eluate (mg), Nephelometry (A1PI [5]): 0.80 mg
Specific Activity (A1PI [5]): 0.84 mg/mg

RYRIFI
Percent Eluted by Fraction, 1M NaCl (Immunoglobulin G (IgG)): 0%
Percent Eluted by Fraction, 2% Acetic Acid (Immunoglobulin G (IgG)): 0%
Percent Eluted by Fraction, 3M NaCl (Immunoglobulin G (IgG)): 0%
Percent Eluted by Fraction, Flow (Immunoglobulin G (IgG)): 100%
Mass Protein per Eluate Fraction, Flow (Immunoglobulin G (IgG); [7]): 0.24 mg
Percent Eluted by Fraction, 1M NaCl (A1PI [1]): 9%
Percent Eluted by Fraction, 2% Acetic Acid (A1PI [1]): 66%
Percent Eluted by Fraction, 3M NaCl (A1PI [1]): 0%
Percent Eluted by Fraction, Flow (A1PI [1]): 25%
Mass Protein per Eluate Fraction, 1M NaCl (A1PI [1]): 0.07 mg
Mass Protein per Eluate Fraction, 2% Acetic Acid (A1PI [1]): 0.50 mg
Mass Protein per Eluate Fraction, Flow (A1PI [1]): 0.19 mg
Mass Protein per Eluate Fraction, 1M NaCl (A1PI [2]; 4° C., * Below detection limit): 0.27 mg
Mass Protein per Eluate Fraction, 2% Ac. Acid (A1PI [2]; 4° C., * Below detection limit): 0.71 mg
Percent Eluted by Fraction, 1M NaCl (A1PI [2]; 4° C.): 28%
Percent Eluted by Fraction, 2% Ac. Acid (A1PI [2]; 4° C.): 72%
Percent Eluted by Fraction, 3M NaCl (A1PI [2]; 4° C.): 0%
Percent Eluted by Fraction, Flow (A1PI [2]; 4° C.): 0%
Mass Protein per Eluate Fraction, 1M NaCl (A1PI [2]; [8]): 0.21 mg
Mass Protein per Eluate Fraction, 2% Ac. Acid (A1PI [2]; [8]): 0.50 mg
Mass Protein per Eluate Fraction, Flow (A1PI [2]; [8]): 0.22 mg
Percent Eluted by Fraction, 1M NaCl (A1PI [2]; 20° C.): 23%
Percent Eluted by Fraction, 2% Ac. Acid (A1PI [2]; 20° C.): 53%
Percent Eluted by Fraction, 3M NaCl (A1PI [2]; 20° C.): 0%
Percent Eluted by Fraction, Flow (A1PI [2]; 20° C.): 24%
Percent Eluted by Fraction, 1M NaCl [3]: 0%
Percent Eluted by Fraction, 2% Acetic Acid [3]: 100%
Percent Eluted by Fraction, 3M NaCl [3]: 0%
Percent Eluted by Fraction, Flow [3]: 0%
Mass Protein per Eluate Fraction, 2% Acetic Acid [3]: 0.39 mg
Percent A1PI Eluted by Fraction Based on Absorbance at 280 nm, 1M NaCl (A1PI [4]): 40%
Percent A1PI Eluted by Fraction Based on Absorbance at 280 nm, 2% Acetic Acid (A1PI [4]): 60%
Percent A1PI Eluted by Fraction Based on Absorbance at 280 nm, Flowthrough (A1PI [4]): 0%
Percent A1PI Eluted by Fraction, 1M NaCl (A1PI [4]): 35%
Percent A1PI Eluted by Fraction, 2% Acetic Acid (A1PI [4]): 65%
Percent A1PI Eluted by Fraction, Flowthrough (A1PI [4]): 0%
Percent Eluted by Fraction, 1M NaCl (Immunoglobulin A (IgA)): 17%
Percent Eluted by Fraction, 2% Acetic Acid (Immunoglobulin A (IgA)): 60%
Percent Eluted by Fraction, 3M NaCl (Immunoglobulin A (IgA)): 0%
Percent Eluted by Fraction, Flow (Immunoglobulin A (IgA)): 22%
Mass Protein per Eluate Fraction, 1M NaCl (Immunoglobulin A (IgA)): 0.06 mg
Mass Protein per Eluate Fraction, 2% Acetic Acid (Immunoglobulin A (IgA)): 0.23 mg
Mass Protein per Eluate Fraction, Flow (Immunoglobulin A (IgA)): 0.08 mg
Mass A1PI in Urea Eluate (mg), Activity (A1PI [5]): 0.67 mg
Mass A1PI in Urea Eluate (mg), Nephelometry (A1PI [5]): 0.79 mg
Specific Activity (A1PI [5]): 0.86 mg/mg
Mass A1PI per Eluate Fraction, 1M NaCl (A1PI [6]; [9]): 0.15 mg
Mass A1PI per Eluate Fraction, 2% Acetic Acid (A1PI [6]; [9]): 0.25 mg
Mass A1PI per Eluate Fraction, Flowthrough (A1PI [6]; [9]): 0.21 mg
Percent Eluted by Fraction, 1M NaCl (A1PI [6]; [10]): 24%
Percent Eluted by Fraction, 2% Acetic Acid (A1PI [6]; [10]): 41%
Percent Eluted by Fraction, Flowthrough (A1PI [6]; [10]): 35%
